In PMC12077208, “Cryo-EM reveals a double oligomeric ring scaffold of the CHIKV nsP3 peptide in complex with the NTF2L domain of host G3BP1” (mBio, 2025):

Target: T1, nuclear translocation factor 2-like (NTF2L) domain of human G3BP1 (human, UniProt Q13283-1 1-138)
T1 construct: three extra residues Gly-Ala-Ser left at the N-terminus after TEV cleavage of the 6xHis tag; complete chains (1-138) are C, G, N and R; also called G3BP1-NTF2L domain; source: E. coli BL21 (DE3), purified (Ni-NTA, TEV cleavage, second Ni-NTA, SEC); not shown: His6, N-terminal, cleaved
Assay: ITC; peptide injected into NTF2L in the cell, 20°C, 20 mM HEPES, 150 mM NaCl, pH 7.5
Details: both partners purified

T1 sequence (Q13283 other isoform, or with tags, fused parts or gaps): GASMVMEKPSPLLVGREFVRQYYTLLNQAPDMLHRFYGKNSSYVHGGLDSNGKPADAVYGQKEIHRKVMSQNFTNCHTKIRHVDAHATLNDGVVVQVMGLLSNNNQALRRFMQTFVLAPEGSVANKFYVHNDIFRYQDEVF

Binder | Kd | fold reduction of binding affinity against CHIKV-43 with NTF2L | stoichiometry N
LTFGDFLPGEVDDLTDSD (also called C-terminus (motif 2 and α2) of CHIKV-43) [C-terminal region of CHIKV-43, 491LTFGDFLPGEVDDLTDSD508 (motif 2 and α2)] | 2200 ± 500 nM |  | 
ITFGDFNDGEIESLSSEL (also called N-terminus (motif 1 and α1) of CHIKV-43) [N-terminal region of CHIKV-43, 473ITFGDFNDGEIESLSSEL490 (motif 1 and α1)] | 3400 ± 700 nM |  | 
ITFGDFNDGEIESLSSELLTFGDFLP [CHIKV-26 peptide (residues Ile473 to Pro498 of CHIKV nsP3, without the α2 region)] |  | ~100 fold | 1 CHIKV-26 per NTF2L (1:1)
